For 1 substance, FRET efficiency results are on record in article PMC10128019.

For the experiment, the target named is HA76Cda1 (Cda1 with the HA epitope inserted at position 76) (Ustilago maydis). Nature of the experiment: FRET or BRET. In general terms: In BRET a luciferase serves as donor, and the signal depends on an acceptor being close.

“DyLight 550-labeled AFP1-His (AFP1^550) (natural protein)” yielded an FRET efficiency of 23%.
